Data published in patent publication US20250002563A1 (UNIVERSITY OF PITTSBURGH OF THE COMMONWEALTH SYSTEM OF …, published 2025).
Changes are numbered by the printed parent chain.

B1: 5p-93 (VHH)
VHH: QVQLVESGGGLVQPGGSLRLSCAASGFTFNRYAMSWVRQAPGKGREWVSGIYSDGSETYYTESVKGRFTISRDNAKNMLYLQMNSLKPEDTALYYCAKDENAHEDYFNSGFDRKYDYWGQGTQVTVSS
notes: class III psNb
B2: 5p-3 (VHH)
VHH: QVQLVESGGGLVQAGDSLRLSCAASGRTISTFPMGWFRQAPGKEREFVATITRTGFGTYYSDSVKGRFTISRDNAKNTVFLQMNSLKPEDTALYYCAAAKTTDWVTRAPREMHEYAYWGQGTQVTVSS
B3: 5p-61 (VHH)
VHH: QVQLVESGGGLVQAGGSLRLACAGSGGTFSSYIMAWFHQAPGKEREFIAGISKTGSDTYYADSVKGRFTISRDNAKNTVYLQMNSLKPEDTAVYYCAARRGPLITTSRLHYDFWGQGTQVTVSS
B4: 5p-82 (VHH)
VHH: HVQLVESGGGLVQAGESLRLSCVDSKRTGSRWPMGWFRQAPGKEREFVASISWTGSRTYYADSVKGRFTISRDNAENTVFLQMNSLKPEDTAVYYCAAAHARVYGANWSSSNRNDYDAWGQGTQVTVSS
B5: 5p-89 (VHH)
VHH: B4 VHH with H1E, E16G, V23E, M34V, Q82K, H100Q, A101T, N114D
B6: 5p-74 (VHH)
VHH: DVQLVESGGGLVQAGGSLRLSCAASGGTSRRYTMGWFRQAPGKEREFVSAISNTGATISGANSMEGRFTISRDNAKNTVYLQMNSLKPEDTAVYYCAATSRGWSIGMTYDYWGQGTQVTVSS
B7: 5p-98 (VHH)
VHH: QVQLVESGGGLVQPGGSLRLSCAASGRTLSNYAMGWFRQAPGKEREFVAVIRQRTGMRSYTYYADSVEGRFTISGDGAKMTVSLQMNSLKPEDTAVYYCAIDLIDDYKSTYYYSTQPSSYDYWGQGTQVTVSS
B8: 5p-64 (VHH)
VHH: QVQLVESGGGLVQAGGSLRLSCAASGRTFSTYAMAWFRQAPGKEREFVAGVARSADTTYYGDSVKGRFTISRDNAKNEVNLQMSSLKPEDTAVYYCAARSVIQYGIVPGNDFHYEYWGQGTQVTVSS
notes: class V psNb
B9: 5p-175 (VHH)
VHH: B8 VHH with G105S
B10: 5p-63 (VHH)
VHH: DVQLVESGGGLVQAGGSLRLSCAASGRSFSTYAMGWFRQAPGKEREFVAGVARSASTTYYTDSVKGRFTISRDNAKNEVYLQMNSLKPEDTAVYYCAARSVIQDTVVPGNPFHYEYWGQGTQVTVSS
B11: 5p-4 (VHH)
VHH: QVQLVESGGGLVQAGASLRLSCAASGRTFTNSHMGWFRQAPGKERDFVAVISRSGGSTLYADSVKGRFTISRDNAKNTVYLQMNTMKPEDTAVYYCAGARTAGLTSNPSLYDYWGQGTQVTVSS
B12: 5p-128 (VHH)
VHH: HVQLVESGGGLVQAGGSLRLSCAASRIFSTSAMGWFRQAPGKERQFVAGTDWSGTNIHYADSVKGRFAISTDNAKNTVYLQMNSLKPEDTAVYYCAQGGWGVSQPIEVDYWGKGTQVTVSS
B13: 5p-13 (VHH)
VHH: HVQLVESGGGLVQPGGSLRLSCVASGLTFSRYTMAWFRQAPGKDRIFVAAVSKPGGSTYYADSVKGRFTISRDNAKNTVYLQMNSLKPDDTAVYSCAADLTVLLTANPAHYNYWGHGTQVTVSS
B14: 5p-40 (VHH)
VHH: B13 VHH with H1D, G16D, K76Q, D99G, H116Q
B15: 5p-14 (VHH)
VHH: B13 VHH with H1Q, D44E, I46V, M83T, N84S, S85R, K87N, A109G, N112K, H116Q
B16: 5p-58 (VHH)
VHH: HVQLVESGGGLVQAGESLRLLCVASGSIDSINAMGWFRQAPGKQRELVASISNMHTTMYAESVKGRFTISRDNFKNTADLQMNSLKPEDTAIYFCNLRQGCSYNGCDEYWGQGTQVTVSS
B17: 5p-167 (VHH)
VHH: B16 VHH with H1Q, E16G, F74A, G100R
B18: 5p-165 (VHH)
VHH: B16 VHH with L21S, D29S, M54I, M58L, N73T, F74A, N83D, F94Y, G100D
B19: 5p-156 (VHH)
VHH: EVQLVESGGGLVQAGDSLRLSCVASGRTFTTSIMGWFRQAPGKEREFVAAIARNGVSTFYADSVKGRFTASRDNAKNTLYLQMNSLKPEDTGVYYCAAKPRGVGLTDRISDYDYWGQGTQVTVSS
B20: 5p-68 (VHH)
VHH: QVQLVESGGGLVQAGGSLRLSCVASGRTFSTSHMGWFRQAPGKEREFVAVISRSGSSTLDADSVKGRFTISRDNAKNTVYLQMNSLKPEDTAVYYCAGSRTAGLTSNRFLYDSWGQGTQVTVSS
B21: 5p-99 (VHH)
VHH: HVQLVESGGGSVQPGGSLRLSCAASGLTLDHYAVGWFRQAPGKEREGVSCISSSTGSAYYADSVKGRFTISRDNAKNMMYLEMNSLKPEDTAVYYCATDLLRRMLPGSSWWCLNQNDFGSWGQGTQVTVSS
B22: 5p-47 (VHH)
VHH: DVQLVESGGGLVQAGGSLRLSCAASGRTFTFNRFAMGWFRQAPEKEREFVAAISRTGRSTEYADSVKGRFAISRDNTKNTVYLQMNSLKPEDTAVYYCAALEAPLLHLIATQRRQYEYWGQGTQVTVSS
B23: 5p-78 (VHH)
VHH: HVQLVESGGGLVQAGGSLRLSCAAAARFSTSAMGWFRQAPGKEREFVAAVSWSNTNIHYADTVKGRFTISADTAKETVYLQMNSLKPDDTAVYYCAQGGWGLTQPIIVDYWGKGTQVTVSS
B24: 5p-126 (VHH)
VHH: B23 VHH with H1Q, I57T, D88E

Target: RBDSARS-CoV-2 (SARS-CoV-2 S protein residues 319-539, C-terminal His-tag) (SARS-CoV-2, UniProt P0DTC2 319-539)
Assay: ELISA

Binder	IC50
B1	< 10 nM
B2	< 10 nM
B3	< 10 nM
B4	10 to 100 nM
B5	10 to 100 nM
B6	< 10 nM
B7	< 10 nM
B8	< 10 nM
B9	< 10 nM
B10	< 10 nM
B11	< 10 nM
B12	< 10 nM
B13	< 10 nM
B14	< 10 nM
B15	< 10 nM
B16	< 10 nM
B17	< 10 nM
B18	< 10 nM
B19	< 10 nM
B20	< 10 nM
B21	< 10 nM
B22	< 10 nM
B23	< 10 nM
B24	< 10 nM

Target: RBDSARS-CoV (SARS-CoV S protein residues 318-510, C-terminal His-tag) (SARS-CoV, UniProt P59594 318-510)
Assay: ELISA

Binder	IC50
B1	> 8000 nM
B2	10 to 100 nM
B3	10 to 100 nM
B4	10 to 100 nM
B5	10 to 100 nM
B6	< 10 nM
B7	10 to 100 nM
B8	< 10 nM
B9	< 10 nM
B10	< 10 nM
B11	10 to 100 nM
B12	10 to 100 nM
B13	< 10 nM
B14	< 10 nM
B15	< 10 nM
B16	1000 to 8000 nM
B17	> 8000 nM
B18	10 to 100 nM
B19	10 to 100 nM
B20	10 to 100 nM
B21	1000 to 8000 nM
B22	1000 to 8000 nM
B23	< 10 nM
B24	< 10 nM
